B1: A26.8 VHH mutant D107N (VHH, not shown: small tags and cut ends)
VHH: QVKLEESGGGLVQAGGSLRLSCAASERTFSRYPVAWFRQAPGAEREFVAVISSTGTSTYYADSVKGRFTISRDNAKVTVYLQMNNLKREDTAVYFCAVNSQRTRLQNPNEYDYWGQGTQVTVSS
B2: A26.8-T56R (VHH, not shown: small tags and cut ends)
VHH: B1 VHH with T56R, N107D
B3: A26.8 VHH mutant D107R (VHH, not shown: small tags and cut ends)
VHH: B1 VHH with N107R
B4: A26.8 VHH mutant D107Y (VHH, not shown: small tags and cut ends)
VHH: B1 VHH with N107Y
B5: A26.8-T103K (VHH, not shown: small tags and cut ends)
VHH: B1 VHH with T103K, N107D
B6: A26.8-Q101K (VHH, not shown: small tags and cut ends)
VHH: B1 VHH with Q101K, N107D
B7: A26.8 VHH mutant E110Q (VHH, not shown: small tags and cut ends)
VHH: B1 VHH with N107D, E110Q
B8: A26.8 VHH mutant R104W (VHH, not shown: small tags and cut ends)
VHH: B1 VHH with R104W, N107D
B9: A26.8-N109R (VHH, not shown: small tags and cut ends)
VHH: B1 VHH with N107D, N109R
B10: A26.8 VHH mutant T54Y (VHH, not shown: small tags and cut ends)
VHH: B1 VHH with T54Y, N107D
B11: A26.8-Q101K,T103K (VHH, not shown: small tags and cut ends)
VHH: B1 VHH with Q101K, T103K, N107D
B12: A26.8-T56R, Q101K, T103K (VHH, not shown: small tags and cut ends)
VHH: B1 VHH with T56R, Q101K, T103K, N107D
B13: A26.8-T103M (VHH, not shown: small tags and cut ends)
VHH: B1 VHH with T103M, N107D
B14: A26.8-T58K (VHH, not shown: small tags and cut ends)
VHH: B1 VHH with T58K, N107D
B15: A26.8-T56R, T103K (VHH, not shown: small tags and cut ends)
VHH: B1 VHH with T56R, T103K, N107D
B16: A26.8-Q101K,T103M (VHH, not shown: small tags and cut ends)
VHH: B1 VHH with Q101K, T103M, N107D
B17: A26.8-T54R (VHH, not shown: small tags and cut ends)
VHH: B1 VHH with T54R, N107D
B18: A26.8-T56R, T103M (VHH, not shown: small tags and cut ends)
VHH: B1 VHH with T56R, T103M, N107D
B19: A26.8-T56R, Q101K (VHH, not shown: small tags and cut ends)
VHH: B1 VHH with T56R, Q101K, N107D
B20: A26.8-Q101K,T103R (VHH, not shown: small tags and cut ends)
VHH: B1 VHH with Q101K, T103R, N107D
B21: A26.8-T56I (VHH, not shown: small tags and cut ends)
VHH: B1 VHH with T56I, N107D
B22: A26.8-T56R, Q101K, T103M (VHH, not shown: small tags and cut ends)
VHH: B1 VHH with T56R, Q101K, T103M, N107D
B23: A26.8 VHH mutant T54W (VHH, not shown: small tags and cut ends)
VHH: B1 VHH with T54W, N107D
B24: A26.8-T103W (VHH, not shown: small tags and cut ends)
VHH: B1 VHH with T103W, N107D

Numbering of substitutions follows the chain as printed. In names and notes the source's numbering stands.

The Kd is the equilibrium constant for the complex coming apart. High values mean a looser complex, low ones a tighter complex. Broadly, the koff is the first-order rate constant of dissociation. Read a high koff as a short-lived complex. For orientation: kon means the rate constant with which the complex forms.

The target of the first experiment is T1, Clostridium difficile toxin A (TcdA) (Clostridium difficile, UniProt P16154 1-2710).
T1 construct: mature; also called full-length TcdA
T1 sequence (P16154 whole entry): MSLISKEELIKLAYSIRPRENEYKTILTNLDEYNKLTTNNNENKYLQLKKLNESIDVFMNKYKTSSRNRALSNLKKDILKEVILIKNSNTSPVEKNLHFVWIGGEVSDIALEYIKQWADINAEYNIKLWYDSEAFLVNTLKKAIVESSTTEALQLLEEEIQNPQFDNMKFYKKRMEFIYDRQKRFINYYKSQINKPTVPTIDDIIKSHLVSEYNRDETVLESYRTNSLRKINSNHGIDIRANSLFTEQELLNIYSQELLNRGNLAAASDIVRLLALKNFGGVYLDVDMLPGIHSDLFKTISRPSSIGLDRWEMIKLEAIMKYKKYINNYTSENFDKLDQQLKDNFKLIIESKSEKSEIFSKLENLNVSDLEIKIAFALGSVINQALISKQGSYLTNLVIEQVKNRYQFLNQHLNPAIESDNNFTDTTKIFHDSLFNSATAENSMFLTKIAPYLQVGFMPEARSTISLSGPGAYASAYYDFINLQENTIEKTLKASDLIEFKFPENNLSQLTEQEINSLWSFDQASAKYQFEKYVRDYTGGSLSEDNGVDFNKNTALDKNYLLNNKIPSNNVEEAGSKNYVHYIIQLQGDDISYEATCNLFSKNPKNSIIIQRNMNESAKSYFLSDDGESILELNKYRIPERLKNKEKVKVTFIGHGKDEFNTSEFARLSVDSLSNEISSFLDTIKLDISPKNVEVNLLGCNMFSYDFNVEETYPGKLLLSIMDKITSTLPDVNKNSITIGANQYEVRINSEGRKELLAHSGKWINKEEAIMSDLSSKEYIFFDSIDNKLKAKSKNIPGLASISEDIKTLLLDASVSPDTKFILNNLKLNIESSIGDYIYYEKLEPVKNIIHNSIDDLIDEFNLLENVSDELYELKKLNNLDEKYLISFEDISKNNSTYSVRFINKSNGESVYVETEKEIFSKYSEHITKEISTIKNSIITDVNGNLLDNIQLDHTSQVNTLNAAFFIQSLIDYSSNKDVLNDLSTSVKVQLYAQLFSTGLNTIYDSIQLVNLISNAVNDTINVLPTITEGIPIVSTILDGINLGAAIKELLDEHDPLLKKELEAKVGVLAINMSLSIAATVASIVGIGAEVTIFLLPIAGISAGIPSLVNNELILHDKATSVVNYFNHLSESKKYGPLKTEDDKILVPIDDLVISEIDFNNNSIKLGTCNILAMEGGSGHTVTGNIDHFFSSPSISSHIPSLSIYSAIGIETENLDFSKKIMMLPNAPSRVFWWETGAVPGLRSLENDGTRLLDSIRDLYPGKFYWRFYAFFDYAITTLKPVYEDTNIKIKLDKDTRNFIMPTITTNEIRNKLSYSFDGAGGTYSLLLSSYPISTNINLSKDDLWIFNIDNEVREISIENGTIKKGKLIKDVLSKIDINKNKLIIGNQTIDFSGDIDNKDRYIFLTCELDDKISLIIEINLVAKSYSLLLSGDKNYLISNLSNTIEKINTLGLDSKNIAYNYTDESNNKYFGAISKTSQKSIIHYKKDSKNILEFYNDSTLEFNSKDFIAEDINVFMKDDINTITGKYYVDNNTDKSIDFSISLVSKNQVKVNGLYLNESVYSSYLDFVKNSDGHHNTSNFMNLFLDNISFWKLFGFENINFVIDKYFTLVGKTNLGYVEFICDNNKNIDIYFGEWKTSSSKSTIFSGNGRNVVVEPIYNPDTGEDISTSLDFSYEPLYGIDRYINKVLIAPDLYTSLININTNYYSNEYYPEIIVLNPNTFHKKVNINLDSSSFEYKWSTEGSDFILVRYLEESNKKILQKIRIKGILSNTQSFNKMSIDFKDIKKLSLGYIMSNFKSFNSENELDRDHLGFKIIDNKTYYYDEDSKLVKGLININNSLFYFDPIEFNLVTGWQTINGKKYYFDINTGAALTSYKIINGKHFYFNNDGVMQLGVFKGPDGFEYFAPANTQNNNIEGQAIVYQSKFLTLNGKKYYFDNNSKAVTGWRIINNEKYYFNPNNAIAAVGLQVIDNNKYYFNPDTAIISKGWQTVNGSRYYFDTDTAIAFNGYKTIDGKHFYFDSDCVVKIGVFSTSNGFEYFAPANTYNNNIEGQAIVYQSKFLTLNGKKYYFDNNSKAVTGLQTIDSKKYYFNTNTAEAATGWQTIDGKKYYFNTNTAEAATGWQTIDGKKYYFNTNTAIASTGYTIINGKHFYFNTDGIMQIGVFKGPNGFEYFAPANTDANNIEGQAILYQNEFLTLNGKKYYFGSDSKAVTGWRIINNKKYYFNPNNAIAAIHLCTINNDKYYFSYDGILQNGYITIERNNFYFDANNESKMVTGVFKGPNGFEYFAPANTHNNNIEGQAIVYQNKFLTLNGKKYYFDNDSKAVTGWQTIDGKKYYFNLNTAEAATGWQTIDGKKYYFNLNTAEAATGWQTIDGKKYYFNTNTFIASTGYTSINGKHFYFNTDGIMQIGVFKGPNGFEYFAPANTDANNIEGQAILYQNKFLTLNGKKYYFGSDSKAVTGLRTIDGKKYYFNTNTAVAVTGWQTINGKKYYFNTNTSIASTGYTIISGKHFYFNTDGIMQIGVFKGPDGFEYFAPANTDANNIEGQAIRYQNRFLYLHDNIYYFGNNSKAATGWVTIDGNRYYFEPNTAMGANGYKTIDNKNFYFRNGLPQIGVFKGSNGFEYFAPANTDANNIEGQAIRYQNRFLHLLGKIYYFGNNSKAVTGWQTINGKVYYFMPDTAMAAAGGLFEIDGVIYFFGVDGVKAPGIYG
Briefly: SPR on immobilized TcdA. The procedure: (§1) Before surface plasmon resonance (SPR) binding experiments, IMAC-purified VHHs were subjected to de-salting and further purification by size-exclusion chromatography (SEC). Approximately 500 μg of each VHH was injected over a Superdex 75 Increase 10/300 GL SEC column (GE Healthcare) in Biacore running buffer HBS-EP (10 mM HEPES pH 7.4, 150 mM NaCl, 3 mM EDTA, 0.005% (v/v) P20; GE Healthcare) under the control of an ÄKTA FPLC at 0.8 mL/min. Monomeric VHH fractions were collected and analyzed for binding to TcdA using a Biacore 3000 SPR instrument (GE Healthcare). Approximately 4,500 resonance units (RUs) of TcdA (List Biological Laboratories, Campbell, Calif.) were immobilized on a CM5 sensor chip (GE Healthcare) using the conditions previously described (Hussack et al, 2011). HBS-EP running buffer was used for all binding studies and regeneration of TcdA surfaces. Next, various dilution ranges of VHHs (as low as 10 nM-0.5 nM to as high as 5 μM-50 nM) were injected over immobilized TcdA at a flow rate of 40 μL/min with 120 s contact time and 600 s dissociation. Reference-subtracted sensorgrams were analyzed with BIAevaluation software (GE Healthcare) and fit to a 1:1 binding model. In cases where rapid kₒₙ and koff rate constants were observed, equilibrium dissociation constants (KDs) were determined by steady-state analysis.
The location of these mutations relative to the antigen epitope is illustrated in FIG. 2C.
Take B1: the “fold decrease in affinity relative to parent A26.8 VHH” value was no more than 2.5 fold.

Turning to B2, the “fold improvement in KD relative to parent A26.8 VHH” value was greater than 2 fold, the “fold improvement in binding affinity relative to parent A26.8 VHH” value is roughly 3 fold and the “fold improvement in kon relative to parent” value was roughly 2.5 fold.

For B3, the “fold decrease in affinity relative to parent A26.8 VHH” value is no more than 2.5 fold.

B4: the “fold decrease in affinity relative to parent A26.8 VHH” value was no more than 2.5 fold.

For the molecule B5, the “fold improvement in KD relative to parent A26.8 VHH” value is greater than 2 fold and the “fold improvement in binding affinity relative to parent A26.8 VHH” value was greater than 2 fold.

For B6, the “fold improvement in KD relative to parent A26.8 VHH” value is greater than 2 fold and the “fold improvement in binding affinity relative to parent A26.8 VHH” value was greater than 2 fold.

Regarding B7, the “fold decrease in affinity relative to parent A26.8 VHH” value was no more than 2.5 fold.

As for B8, the “fold decrease in affinity relative to parent A26.8 VHH” value was roughly 10 fold.

Another experiment deals with T1, Clostridium difficile toxin A (TcdA). The experiment in a line: SPR (Biacore 3000), VHH over immobilized TcdA, 1:1 fit. Here is the method:
as §1
Background: Surface plasmon resonance follows binding to a sensor surface in real time, without labels.
Turning to B1, binding was characterised by a dissociation constant (Kd) of 21.3 nM, the koff was determined as 0.0402 s⁻¹ and the kon was determined as 1.92e+06 M⁻¹ s⁻¹.

B2 came in with a Kd of 6.16 nM, a koff of 0.0269 s⁻¹ and a kon of 4.75e+06 M⁻¹ s⁻¹.

Molecule B9 showed a Kd of 13.9 nM, a koff of 0.0268 s⁻¹ and a kon of 1.95e+06 M⁻¹ s⁻¹.

The molecule B10 yielded a Kd of 38.9 nM, a koff of 0.0694 s⁻¹ and a kon of 1.81e+06 M⁻¹ s⁻¹.

In turn, B11 showed a Kd of 8.21 nM, a koff of 0.0396 s⁻¹ and a kon of 4.96e+06 M⁻¹ s⁻¹.

The molecule B3 yielded a Kd of 19 nM, a koff of 0.0259 s⁻¹ and a kon of 1.39e+06 M⁻¹ s⁻¹.

On to B12, for which the Kd came to 3.19 nM, the dissociation rate constant (koff) turned out to be 0.0467 s⁻¹ and the kon stood at 1.47e+07 M⁻¹ s⁻¹.

Take B13: binding was characterised by a dissociation constant (Kd) of 13.7 nM, the koff stood at 0.0237 s⁻¹ and the kon turned out to be 1.77e+06 M⁻¹ s⁻¹.

Molecule B14 yielded a Kd of 13.5 nM, a koff of 0.0327 s⁻¹ and a kon of 2.47e+06 M⁻¹ s⁻¹.

Molecule B4 yielded a dissociation constant (Kd) of 44 nM, a koff of 0.0711 s⁻¹ and a kon of 1.62e+06 M⁻¹ s⁻¹.

Molecule B15 displayed a Kd of 3.44 nM, a koff of 0.0291 s⁻¹ and a kon of 8.61e+06 M⁻¹ s⁻¹.

Molecule B16 came in with a Kd of 8.02 nM, a koff of 0.0265 s⁻¹ and an association rate constant (kon) of 3.31e+06 M⁻¹ s⁻¹.

B5: the Kd came to 8.29 nM, the koff is 0.0199 s⁻¹ and the kon is 2.47e+06 M⁻¹ s⁻¹.

Molecule B17 gave a Kd of 13.2 nM, a koff of 0.044 s⁻¹ and an on-rate (kon) of 3.55e+06 M⁻¹ s⁻¹.

For the molecule B18, the Kd was 4.84 nM, the koff was determined as 0.0304 s⁻¹ and the kon came out at 6.42e+06 M⁻¹ s⁻¹.

B19: the Kd came to 4.13 nM, the off-rate (koff) was found to be 0.0497 s⁻¹ and the kon was determined as 1.24e+07 M⁻¹ s⁻¹.

With B20, the affinity, expressed as Kd, was 4.2 nM; the koff worked out at 0.0226 s⁻¹; the kon was found to be 5.45e+06 M⁻¹ s⁻¹.

In turn, B6 had a Kd of 7.63 nM, an off-rate (koff) of 0.0198 s⁻¹ and a kon of 2.7e+06 M⁻¹ s⁻¹.

Regarding B7, the Kd is 33.6 nM, the koff came out at 0.0699 s⁻¹ and the kon was 2.08e+06 M⁻¹ s⁻¹.

B21 had a Kd of 13.6 nM, a koff of 0.0262 s⁻¹ and a kon of 1.94e+06 M⁻¹ s⁻¹.

With B22, the equilibrium dissociation constant (Kd) was found to be 2.87 nM, the koff turned out to be 0.0296 s⁻¹ and the kon came to 1.04e+07 M⁻¹ s⁻¹.

Consider B8, for which the Kd is 165 nM, the koff was 0.0548 s⁻¹ and the kon amounted to 330000 M⁻¹ s⁻¹.

B23 registered a Kd of 35 nM, a koff of 0.0561 s⁻¹ and a kon of 1.61e+06 M⁻¹ s⁻¹.

B24: the Kd amounted to 16.3 nM, the koff came out at 0.0361 s⁻¹ and the kon is 2.39e+06 M⁻¹ s⁻¹.

Another experiment shares this target. Briefly: SPR (Biacore 3000), VHH over immobilized TcdA; ratio of parent KD to mutant KD. Here is the method: as §1
Regarding B1, the “KD^WT/KD” value is 0.9.

Turning to B2, the “KD^WT/KD” value was 3.

On to B9, for which the “KD^WT/KD” value was 1.3.

Regarding B10, the “KD^WT/KD” value is 0.5.

For B11, the “KD^WT/KD” value came to 2.3.

For B3, the “KD^WT/KD” value was 1.

With B12, the “KD^WT/KD” value amounted to 5.9.

For the molecule B13, the “KD^WT/KD” value was 1.4.

As to B14, the “KD^WT/KD” value was 1.4.

B4: the “KD^WT/KD” value was found to be 0.4.

In the case of B15, the “KD^WT/KD” value amounted to 5.4.

For B16, the “KD^WT/KD” value stood at 2.3.

Regarding B5, the “KD^WT/KD” value turned out to be 2.3.

B17: the “KD^WT/KD” value came out at 1.4.

Turning to B18, the “KD^WT/KD” value worked out at 3.9.

Consider B19, for which the “KD^WT/KD” value worked out at 4.5.

As for B20, the “KD^WT/KD” value was 4.5.

For B6, the “KD^WT/KD” value turned out to be 2.5.

On to B7, for which the “KD^WT/KD” value was 0.6.

In the case of B21, the “KD^WT/KD” value was 1.4.

With B22, the “KD^WT/KD” value was found to be 6.5.

Turning to B8, the “KD^WT/KD” value was 0.1.

Regarding B23, the “KD^WT/KD” value was determined as 0.5.

B24: the “KD^WT/KD” value was found to be 1.1.

The target is the same in the next experiment. Briefly: SPR (Biacore 3000), VHH over immobilized TcdA; binding free energy difference relative to parent VHH. The procedure: as §1
With B1, the ΔΔG came to 0.08 kcal/mol.

On to B2, for which the ΔΔG is -0.65 kcal/mol.

As for B9, the ΔΔG is -0.17 kcal/mol.

Turning to B10, the ΔΔG amounted to 0.43 kcal/mol.

With B11, the ΔΔG is -0.48 kcal/mol.

Regarding B3, the ΔΔG came to 0.01 kcal/mol.

Take B12: the ΔΔG was -1.03 kcal/mol.

For B13, the ΔΔG is -0.18 kcal/mol.

Take B14: the ΔΔG is -0.19 kcal/mol.

Turning to B4, the ΔΔG is 0.5 kcal/mol.

For B15, the ΔΔG is -0.99 kcal/mol.

Consider B16, for which the ΔΔG was -0.49 kcal/mol.

Take B5: the ΔΔG was -0.48 kcal/mol.

With B17, the ΔΔG was -0.2 kcal/mol.

Turning to B18, the ΔΔG is -0.79 kcal/mol.

As for B19, the ΔΔG was -0.88 kcal/mol.

Turning to B20, the ΔΔG is -0.87 kcal/mol.

As to B6, the ΔΔG was -0.52 kcal/mol.

On to B7, for which the ΔΔG worked out at 0.34 kcal/mol.

On to B21, for which the ΔΔG is -0.19 kcal/mol.

In the case of B22, the ΔΔG was -1.1 kcal/mol.

Turning to B8, the ΔΔG was found to be 1.27 kcal/mol.

As for B23, the ΔΔG turned out to be 0.37 kcal/mol.

For B24, the ΔΔG is -0.08 kcal/mol.
